# B1: Hairpin Ribozyme (parent)
# chain: GUCCUCUUUCACGUGCGCGUGAAAGAGAGAAGUGAACCAGAGAAACACACGUUGUGGUAUAUUACCUGGUA
# Variants of: B1
# Experiment: self-cleavage, relative activity (ratio to wild type); higher = more cleavage; co-transcriptional
row,Variant,self-cleavage
1,U52A U55C,0.438
2,U52A U55A,0.33
3,C50A A64G,0.211
4,G51A U62A,0.137
5,G51A U62C,0.364
6,U53A C66U,0.649
7,G54U A64C,0.128
8,G54U A64G,0.4
9,C50G G54U,0.441
10,C50G G54A,0.487
11,U55A G57A,0.148
12,U55A G57C,0.146
13,G54C G69A,0.0998
14,U53G G54C,0.551
15,U53G G54U,0.49
16,G51C U53A,0.72
17,C50U G54U,0.905
18,C50U G57C,0.16
19,C50U G57U,0.183
20,U52C C66G,0.244
21,G51U A59C,0.103
22,U52A G54U,0.64
23,U52A G54C,0.47
24,C50U A71G,0.457

row,Variant,self-cleavage
1,G51U U52G,0.648
2,G51U U52A,1.1
3,G51C A61C,0.0996
4,G54A G57A,0.182
5,G54A G57U,0.27
6,G51C G56C,0.065
7,U52G U58A,0.452
8,U52G U58C,0.707
9,C50A G54C,0.375
10,C50A G54A,0.742
11,U52G U60C,1.08
12,U53A G57A,0.14
13,U53A G57U,0.181
14,G51U A71G,1.24
15,C50G C65U,0.0289
16,U52A U70G,0.86
17,U52A U70C,0.801
18,U52A U70A,0.825
19,G51U U53A,1.07
20,G51U U53C,0.777
21,U52G A59G,0.25
22,U52G A59C,0.206
23,G54C A71G,0.438
24,C50G A59G,0.211

row,Variant,self-cleavage
1,C50G A59C,0.221
2,G54U U63G,0.159
3,G54U U63A,0.267
4,U55A G56C,0.203
5,U55A G56U,0.148
6,G51C A59U,0.172
7,G51C A59G,0.166
8,C50A U70G,0.252
9,C50A U70A,0.303
10,G54U U55C,0.18
11,G54U U55G,0.399
12,C50A U58C,0.144
13,C50A U58A,0.183
14,G51C U60G,0.62
15,C50U G51U,0.424
16,C50U G51A,0.322
17,U55C G56U,0.321
18,C50G G51C,0.327
19,C50G A64C,0.201
20,G51C G68C,0.322
21,G51C G68A,0.254
22,U55A A61G,0.156
23,U52G U63G,0.134
24,U52G U63A,0.139

row,Variant,self-cleavage
1,U53G U55C,0.369
2,U53G U55A,0.269
3,G51U C66A,0.192
4,C50A U60C,0.419
5,G51U G68C,0.274
6,G51U G68A,0.312
7,G54C U60G,0.27
8,G51U A64G,0.544
9,G54C U55A,0.196
10,G54U A61U,0.268
11,G54U A61G,0.139
12,G54C G56A,0.116
13,G54C G56U,0.166
14,U52C G69U,0.21
15,C50U U67A,0.2
16,C50U U67G,0.181
17,C50G U70C,0.498
18,G54U C65G,0.145
19,G54U C65A,0.561
20,C50G U67C,0.0994
21,C50U C66G,0.166
22,C50U C66A,0.165
23,U53G G69U,0.279
24,G54A G69U,0.143

row,Variant,self-cleavage
1,G54A G69C,0.177
2,G51C A71C,1.3
3,G51C A71G,0.814
4,G54C A64U,0.155
5,G51A U63G,0.135
6,U53G A71U,0.635
7,U53G A71C,1.29
8,U52C U63G,0.341
9,G51A G54U,0.649
10,G51A G54A,0.62
11,U53G U63G,0.156
12,G51A U70C,1.1
13,G51A U70A,1.09
14,C50U U55A,0.32
15,C50U U55C,0.615
16,U52C U60A,1.14
17,U52G U67G,0.156
18,U52A G57C,0.0886
19,U53C U60A,0.635
20,U53C U60G,0.557
21,U53A U62G,0.146
22,U53A U62A,0.266
23,G51C U70G,0.704
24,U55A G68U,0.17

row,Variant,self-cleavage
1,C50A G69U,0.173
2,U52G G56U,0.131
3,G54U U60C,0.834
4,C50G U58G,0.147
5,C50G C66U,0.146
6,C50A U55C,0.582
7,U53A U58A,0.746
8,U53C A64C,0.278
9,U53C A64U,0
10,G54C A61C,0.183
11,U55C A59U,0.239
12,G51U A61C,0.109
13,C50U U63G,0.198
14,C50U U63A,0.172
15,C50U U63C,0.217
16,G54C C66U,0.254
17,U52C A59U,0.115
18,U52C U55A,0.318
19,U52C U55C,0.536
20,U52A U58A,0.818
21,U52A U58C,0.881
22,U52A U58G,0.678
23,G51A,1.03
24,G51C,0.876

row,Variant,self-cleavage
1,G51U,1.03
2,U52A A64G,0.603
3,U52A A64C,0.253
4,G51U U58C,0.982
5,G51U U58G,0.797
6,G51A C66A,0.344
7,G54C U63G,0.119
8,U53C A59C,0.217
9,U53C A59U,0.166
10,C50G U62C,0.158
11,C50G U62G,0.151
12,U53G G56A,0.195
13,U53G G56U,0.223
14,U53G G56C,0.125
15,G54C U67C,0.109
16,U53G G57U,0.164
17,U53G G57A,0.178
18,C50U U53A,0.335
19,C50G G57U,0.307
20,U52G G68C,0.283
21,U52G G68U,0.136
22,C50G A71C,0.69
23,U55C G57C,0.12

# — the RNAGym collection of RNA variant scans (doi:10.7554/elife.80360)
